assay: soluble on expression in E. coli; label from the status in PepcDB or PDB records

Sequence | soluble on expression in E. coli
MCTRVVYSGSNGMVATGRSMDWKTDMHSNLWVFPRGMKRNGETGENSLEWTSRYGSVVTSAFEIASTDGMNEKGLVANLLWLPETEYPVRDKNKPGLAITAWVQYMLDNFATVEEAVAYIDEDTFQVVSDMMPDGSRLATLHLSISDATGDCAIFEYIGGKLTVYHSKEYKVMTNSPTYNKQLALSEYWKSIGGLSFLPGTNRAADRFARASFYINALPETDDERIAVASVFSVVRNASVPYGISTPESPEISTTQWRTVSESKNLRYFFESSLTPNTFWVNLKDFDLSEGAPVFKLSIANGEMYHGNTAKNFKTALPFKFMGVKG | not soluble
MVTQILGAMESQVGGGPAGPALPNGPLLGTNGATDDSKTNLIVNYLPQNMTQDEFKSLFGSIGDIESCKLVRDKITGQSLGYGFVNYSDPNDADKAINTLNGLKLQTKTIKVSYARPSSASIRDANLYVSGLPKTMSQKEMEQLFSQYGRIITSRILVDQVTGVSRGVGFIRFDKRIEAEEAIKGLNGQKPLGAAEPITVKFANNPSQKTGQALLTHLYQSSARRYAGPLHHQTQRFRLDNLLNMAYGVKSPLSLIARFSPIAIDGMSGLAGVGLSGGAAGAGWCIFVYNLSPEADESVLWQLFGPFGAVTNVKVIRDFTTNKCKGFGFVTMTNYDEAAMAIASLNGYRLGERVLQVSFKTSKQHKA | soluble
MSLARTLVIGNKNYSSWSMRPWIALKATGVAFDEVVIPLYTGDADKRRILAFTPAGKVPVLVDGDVTIWDSLAIIEYAAERFPKAQLWPDDVAARAHARSVAAEMHSGFAALRNECGMNIHRPVGAKQLSDAARADIARVQEIWIDCRHRYGRFGPYLFGRFSGVDAMFAPVVHRFRTYAVELDPIAQGYVEVMMALPAFQEWTQAALAETWVIDKFETEGHHHHHH | soluble
MKLASLKSTRSRDGELCIVNRLLTAAIRVPHIASTLQYALDHWDVVEPKLQLVYQQLNDNQIEDAFAFAPELCASPLPRAYQWADGSAYVNHVELVRKARGAEMPADFWTNPLMYQGGSDAFLGPRDPILVSSEAYGIDFESEVAVITDDVPMGIDHTNAAHHIKLLMLVNDVSLRNLIPEELAKGFGFFQSKPASSFSPVAITPDELGSYWDGQRVNLPLISHLNEQLFGQPNAGVDMTFSFPELIQHAAKTRFLTAGTIIGSGTVSNLDRSKGSSCIAEKRMLEMIEFGQAKTPFMRFGDRIRIEMLDGQGYSLFGSIDQIVTKYDKDSL | not soluble
MAHHHHHHMVRKVWIGQGDVVLVSKRSFNKNDIVDVIHRYNPAEVRALVKDEVIPRDFRSSDERDAKNAHSDYVFVAENDDDGGADDDDQNVLDRNKVVLDDPLATFDEL | not soluble
MSQLLQDYLNWENYILRRVDFPTSYVVEGEVVRIEAMPRLYISGMGGSGVVADLIRDFSLTWNWEVEVIAVKDYFLKARDGLLIAVSYSGNTIETLYTVEYAKRRRIPAVAITTGGRLAQMGVPTVIVPKASAPRAALPQLLTAALHVVAKVYGIDVKIPEGLEPPNEALIHKLVEEFQKRPTIIAAESMRGVAYRVKNEFNENAKIEPSVEILPEAHHNWIEGSERAVVALTSPHIPKEHQERVKATVEIVGGSIYAVEMHPKGVLSFLRDVGIASVKLAEIRGVNPLATPRIDALKRRLQ | soluble
MSDKKDFENNYEKTEDAWPIGVELVEHEISTGIWVTTQWQLTGFALNPTEETPDVCLLQLHKDERTDYRFNLSSQQPKLFLVMDNVESGEKPAIQLLTASQSVAAQYMDGDNLVLSNDMPLAVQAWMEAFIGRHGELLEVRRKKRKGAGRANGN | not soluble
MSLKPASVIIMDEHPIVRMSIEVLLGKNSNIQVVLKTDDSRTAIEYLRTYPVDLVILDIELPGTDGFTLLKRIKSIQEHTRILFLSSKSEAFYAGRAIRAGANGFVSKRKDLNDIYNAVKMILSGYSFFPSETLNFISNTRTPKGGHHDMPLSNREVTVLRYLANGMSNKEIAEQLLLSNKTISAHKANIFSKLGLHSIVELIDYAKSHELLEGHHHHHH | soluble
MRETIPIKYIDTIEINKLSIQDLEDLSSCKYKLLSAYLIGKIPANKILDADELEIYHNERTKKILAKAIKARKLVIVLKATRLCNLRCTYCHSWAEGPNQTILFSTLIHIVRQILAIPNVNRFEFVWHGGEVTLLKPAFFKKLIWLQEQFKRPEQYITNTMQSNIVNISDEWLIFIKGIGMNVGISLDGIPAVNDKRRVDFRGRGTSDRIAKGIKKLQKYDILYGALIVVDREVYQTDMREMLDYFILIELNGIEFLNIVPDNRLTAGEDIGNNFISYAEFIKFLSALFVIWIKGYREKIHIAIFEDFISVLEHPEKKLSACYWSGNCSQEIITLEPNGDVSPCDKYRGDAGSIYGSLLKTDLAGLLTQSSHNQQAIDEEVAATRKMQHCEWFSICHGGCPHDRVINRRHTKGYNDECCGTGKLLATIKAYLADIR | not soluble
MGSDKIHHHHHHMNRTAVGVDIAKSVFQVHYVDPETGEIVNKPIKRAKFLEFFANRARCLIGMEACGGAQHWARQLMKMGHEIRLMPAEFVKAFNIRNKNDAADARAIWLAVQQPGKPVAVKTEMQQAMLALHRMRRQLVTFRTMQINGLRGLPTEYGEVMGRGRAALDKAIPEVLRRVAERLPAVVIDTLREQWNGLTKLDEQVACIERRMREWKKQDKAVQAISEIPGVGLLTATAAVAMMGDAKAFSSGREFAAWAGLVPKQTGSGGKVNLHGISRRGDTYLRTLLIHGARSVLTHAKDPGPWVEQMKKRRPLNVVVVALANKIARTIWAGTFLRYSYNFP | not soluble
MENFEIWVEKYRPRTLDEVVGQDEVIQRLKGYVERKNIPHLLFSGPPGTGKTATAIALARDLFGENWRDNFIEMNASDERGIDVVRHKIKEFARTAPIGGAPFKIIFLDEADALTADAQAALRRTMEMYSKSCRFILSCNYVSRIIEPIQSRCAVFRFKPVPKEAMKKRLLEICEKEGVKITEDGLEALIYISGGDFRKAINALQGAAAIGEVVDADTIYQITATARPEEMTELIQTALKGNFMEARELLDRLMVEYGMSGEDIVAQLFREIISMPIKDSLKVQLIDKLGEVDFRLTEGANERIQLDAYLAYLSTLAKK | soluble
MGKGKNKMHEPKNGRPQRGANGHSSRQNHRRMEMKYDNSEKMKFPVKLAMWDFDHCDPKRCSGKKLERLGLIKSLRVGQKFQGIVVSPNGKGVVCPDDLEIVEQHGASVVECSWARLEEVPFNKIGGKHERLLPYLVAANQVNYGRPWRLNCVEALAACFAIVGRMDWASELLSHFSWGMGFLELNKELLEIYQQCTDCDSVKRAEEEWLQKLEKETQERKSRAKEEDIWMMGNINRRGNGSQSDTSESEENSEQSDLEGNNQCIEYDSLGNAIRIDNMKSREAQSEESEDEESGSKENGEPLSYDPLGNLIR | not soluble
MSLRCPTCQYNGTRVVDSRPADDGNSIRRRRECEKCGFRFTTFEKVEESPLIVVKKDGAREEFAREKVRRGLIRACEKRPVSAEQIEEIVNEVERELRNIGDSEIASDLIGEKVMNKLANLDEVAYVRFASVYRQFKDISVFVEELKDLMEKNKEGHHHHHH | soluble
MGSSHHHHHHSSGLVPRGSHMTRSKVAIIGGGPAGSVAGLTLHKLGHDVTIYERSAFPRYRVGESLLPGTMSILNRLGLQEKIDAQNYVKKPSATFLWGQDQAPWTFSFAAPKVAPWVFDHAVQVKREEFDKLLLDEARSRGITVHEETPVTDVDLSDPDRVVLTVRRGGESVTVESDFVIDAGGSGGPISRKLGVRQYDEFYRNFAVWSYFKLKDPFEGDLKGTTYSITFEDGWVWMIPIKDDLYSVGLVVDRSKSAEVREQGADAFYSSTLAKCAKAMDILGGAEQVDEVRIVQDWSYDTEVFSADRFFLCGDAACFTDPLFSQGVHLASQSAVSAAAAIDRITRHGDEKDAVHAWYNRTYREAYEQYHQFLASFYTFASFTEPDSEFWRKRRITESDDDRLTRKKWFESLAGNGPEDPSGTVASFRDRASTMIAIGRHQRPELSDDFSEAELNPARVRWISDLTKRLNSITRFKWTGGKAVLKQHYRVEPIGFRLEQREVLANGEGLDMAQYPMDDEARQIFQDLAEEEFGYKTLVKRLGAVGRQELSTQIVVRLMEAGLLTGYDAQGEKVFVQGRLHFGGVGVEYEV | soluble
MSLEALLSEDVKIIASALKAAIDKDRKSTSKREAETGIRYYNHENDIMNNRIFYVDDEGVLREDKYASNVRIPHGFFPEIVDQKTQYLLSNPVEYETENEELKEYLAEYYNSEFQVVLQELVEGSSQKGFEYVYARTNAEDRLCFQVADSLNVFGVYNEYNELQRICRHYITEIEKDGETVDIHHAEVWTDQNVYFFVAEDNKDYELDEAEPINPRPHVLAVDSDNESLLQRSYGQIPFYRLSNNKQETTDLKSIKALIDDYDLMNCFLSNNLQDFAEAIYVVSGFQGDDLSKLRQNVKSKKVVGTGSDGGLDVKTVTIPTEGRKTKMEIDKENIYKFGMAFDSTQVGDGNITNIVIKARYTLLNMKANKTEARLRALLEWMNKLVIDDINRRYTKAFDPTEVSFTFTREVMVNETDIVNNEKTEAETRKIILESILQVAPRLDDDNVLRLICEQFDLDWEDVKEALEEAEYTQGLTDNTDEEETAEGHHHHHH | soluble
MKIAYFSDTYYPTPDGVSTYLKDVKRGLEKRGHEVYIFSLTGDPHEKNVFIPRTVPFPPYDQYRMPLIPFPFREFKTAVDIMPDVIHLHNAFYMSSVGYLVARRLGKKPISTFHTDIDKMRESIRLPFSDLIFDLGKRYSIYLYRKCKFVLAPSCQVKAYLERCGLKNIVTVPLFVDTDELSPAKASNKQDIILYLGRLTKDKGVYRVLELANEMKGTGYKFIIAGVGPELERMKAYVKENDISNVNILGYVKEDEKKQLMEVSKFFIYPSSADTFGISVFEALSMGLPAIVSKEFPVKEDTNAIVYEDFSNIKHIANKLLNIDQATYSEMSTSARTLAISKYSIDRHIDQLLSLYMSLVDHLEHHHHHH | not soluble
MGSDKIHHHHHHVKRRLNPLEAYLVVMSNADRAGGLVLAATPKMKQEHHIKTGSRMYELPTWDKRIIIAPPRMKLYLKVNAMIQAIFRRYVPAEFIHVYSIDECFLDITGSHLLFGSTEEIVRKIQRDILEELRLYVTVGIGDNPLLAKLALDNVAKNRDDGIAEWRYEDVPETIWKIRHLDDVCGIGRRTAIRLQKMGIFNMYQLSQTPPQVLKNAMGVVGEQLYYHAHGIDYSLLNEKYVPVSKSYGKSQILEKDYHIPAEVEIVIREMVEEVAMRLRQNHVDTEVIHLSIGYSKYSIKKGFSHQAKIPSTSSSHALIPYFLQLFRRYDEREPVRSIAISCGKLTLKTGLQLNLFEDATRTLNHEQLEVTVDKIRTRYGFKSLMHASSLLNGATGLKRSEMVGGHKG | not soluble
MPMYKLTPTFPPNFEVHPKIACYPVGSYHNPSFGGVGPSDAVQVESDPRKALEHKQLSLIEQLKAQTEELKKLLVSLGEAGKAERSAQKPAEKAPKEPEKSAGAASSAPGVPGAPAKLDKDAKKEARKAAKAEAVKKLASGEAPPQKSAKKTVNSTPWTVQDDRKTWETNLTLTVNLPTSLVAYEPQEQLKNATLTVRDVDLPWARALAKVGASRGVSFEGEVKNQTKEKKSSLKVVKGPAPSLQLEKTTVKSLQTIWKLLGSSLGLFSRRPQQVLSASHQAIWLGKAEQILAGSCDQSFVTREASQFLARFDSLSSQWEVCVADIVFRSLLNLGEHLPNNVELWAKKIDALIV | soluble
